Measurements taken from the supplement of paper PMC10567573.

B1: FCHO1 (parent)
chain: FSDPSQSDPETKDFWLNMAALTEA

Variants of: B1
Experiment: protein stability index of a GFP-peptide fusion (GPS, HEK-293T) (PSI 1-6); higher = more stable
Conditions: c terminus: a fixed tail appended
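Further: lentivirally expressed fusions sorted by FACS into six bins by GFP to DsRed ratio, PSI derived from sequencing read proportions per bin multiplied by bin number.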

In order of falling protein stability index:
1. DSDPSQSDPETKDFWLNMAALTEA  5.36
2. FSDPSQSDPETKDEWLNMAALTEA  4.99
3. FSDPSQSDPETKDFALNMAALTEA  4.88
4. FSDPSQSDPETKDDWLNMAALTEA  4.88
5. ASDPSQSDPETKDFWLNMAALTEA  4.73
6. FSDPSQSDPETKDFHLNMAALTEA  4.73
7. QSDPSQSDPETKDFWLNMAALTEA  4.72
8. HSDPSQSDPETKDFWLNMAALTEA  4.7
9. FSDPSQSDPETKDFRLNMAALTEA  4.68
10. FSDPSQSDPETKDFELNMAALTEA  4.68
11. FSDPSQSDPETKDFCLNMAALTEA  4.62
12. FSDPSQSDPETKDFLLNMAALTEA  4.59
13. FSDPSQSDPETKDPWLNMAALTEA  4.58
14. FDDPSQSDPETKDFWLNMAALTEA  4.53
15. FSDPEQSDPETKDFWLNMAALTEA  4.46
16. KSDPSQSDPETKDFWLNMAALTEA  4.42
17. FSDPSQSDPETKDFTLNMAALTEA  4.38
18. LSDPSQSDPETKDFWLNMAALTEA  4.25
19. FSDPSQSDPEEKDFWLNMAALTEA  4.2
20. MSDPSQSDPETKDFWLNMAALTEA  4.18
21. FSDPSQSDPETKDAWLNMAALTEA  4.17
22. FSDPSQSDPETKDVWLNMAALTEA  4.01
23. FSDPSQSDPETKDWWLNMAALTEA  3.87
24. FRDPSQSDPETKDFWLNMAALTEA  3.79
25. FSDPSQDDPETKDFWLNMAALTEA  3.73
26. RSDPSQSDPETKDFWLNMAALTEA  3.73
27. FSDPSQSDDETKDFWLNMAALTEA  3.7
28. FSDPSQEDPETKDFWLNMAALTEA  3.69
29. FSDPSQSDPETNDFWLNMAALTEA  3.66
30. FSDPSQSDPETKDFWLNMAALEEA  3.66
31. FSDPSQSDPETKDFWQNMAALTEA  3.59
32. FSDPSQSDPETKDFWLNPAALTEA  3.53
33. FMDPSQSDPETKDFWLNMAALTEA  3.5
34. FSDDSQSDPETKDFWLNMAALTEA  3.49
35. FSDPSQSDPETKDFWNNMAALTEA  3.48
36. FSDPMQSDPETKDFWLNMAALTEA  3.35
37. FSDPSESDPETKDFWLNMAALTEA  3.35
38. FSDPSQSDPETKDFWLNMAALTRA  3.31
39. FSDPSQSDPETKDFWLNMAAQTEA  3.3
40. FSDPSQSDPETKDFWLNMAALTEE  3.3
41. FSDPSQSDPETKDFWLNMAALWEA  3.27
42. FSDPSQSDPETKDFWLNMAADTEA  3.27
43. FSDPSQSDPETKDFWLNMAALTEQ  3.27
44. FSDPSQSDPETSDFWLNMAALTEA  3.26
45. FSDPSQSDPETADFWLNMAALTEA  3.25
46. FSDPSQSDPETKDFWLNMADLTEA  3.25
47. FSDPSQSDPETKDFWLNMAALTEN  3.23
48. FSDPSQSDPETKDFWLNWAALTEA  3.18
49. FSDPSPSDPETKDFWLNMAALTEA  3.16
50. FSDPSQSDPEQKDFWLNMAALTEA  3.15
51. FSDPSQSDPENKDFWLNMAALTEA  3.12
52. FSDPSQSDPETKDFWLNRAALTEA  3.11
53. FSDPSQSEPETKDFWLNMAALTEA  3.1
54. FSDPSQSDPETKDFWLNMAALCEA  3.09
55. FSDPSQSDPETMDFWLNMAALTEA  3.07
56. FSDPSQSDKETKDFWLNMAALTEA  3.05
57. FSDPSQSDPETCDFWLNMAALTEA  3.04
58. FSDPSQSDPEGKDFWLNMAALTEA  3.04
59. FSDPSQSDPETKDFWLNMAALDEA  3.04
60. FSDPAQSDPETKDFWLNMAALTEA  3.03
61. FSDPSQSDPETKDFWLNMAALMEA  3.02
62. FSDPSQSDPETKDFWLNMQALTEA  3.02
63. FSDPSQSDPETKDFWLNAAALTEA  3.02
64. FPDPSQSDPETKDFWLNMAALTEA  3.02
65. FSDPSQSDPETKDFWLNMAAITEA  3
66. FSDPSQSDPESKDFWLNMAALTEA  2.98
67. FSDPSQSDPETKDFWLNMAAKTEA  2.95
68. FSDPSQSDPETKDFWLNMAARTEA  2.95
69. FSDPKQSDPETKDFWLNMAALTEA  2.94
70. FSDPPQSDPETKDFWLNMAALTEA  2.94
71. FSDPSQSDPETKDFWLNMASLTEA  2.94
72. FSDPSQSDPETKDFWLKMAALTEA  2.91
73. FSDPSQSIPETKDFWLNMAALTEA  2.9
74. FFDPSQSDPETKDFWLNMAALTEA  2.89
75. FSDPSQSDPETKDFWLNMAALTEH  2.89
76. FSDPSQSDPETKDFWANMAALTEA  2.87
77. FSDPSQSDPETKDFWLNMAALIEA  2.86
78. FSDPSQSDPETKDFWLNMANLTEA  2.86
79. FSDPSVSDPETKDFWLNMAALTEA  2.85
80. FSDPSQSDPETKDFWLNMAMLTEA  2.85
81. FSDPLQSDPETKDFWLNMAALTEA  2.84
82. FSDPTQSDPETKDFWLNMAALTEA  2.84
83. FSDPSQSDPETKDFWLNMAALLEA  2.82
84. FSDPSQSDIETKDFWLNMAALTEA  2.82
85. FSDPSQSTPETKDFWLNMAALTEA  2.81
86. FSDPSQSDPETKDFWLYMAALTEA  2.8
87. FSDPSQSDPETKDFWLNMAALTEW  2.8
88. FSDPSQSDPETKDFWLNMAALTED  2.8
89. FIDPSQSDPETKDFWLNMAALTEA  2.8
90. FSDPNQSDPETKDFWLNMAALTEA  2.79
91. FSDPSQSDPETKDFWLNMKALTEA  2.78
92. FSDPSQSDPETKDFWLNMAALTDA  2.75
93. FSDPSQSDPETKDFWLNMEALTEA  2.74
94. FSDPSQSDPETKDFWYNMAALTEA  2.73
95. FSDPSQSDPETKDFWLNMATLTEA  2.71
96. FSDPSQSDPETKDFWLNMYALTEA  2.7
97. FSDPSQSDPEVKDFWLNMAALTEA  2.69
98. FSDPSQSDPETKDFWLGMAALTEA  2.67
99. FSDPSQSDPETKDFWLNMAALTEL  2.67
100. FSDPSSSDPETKDFWLNMAALTEA  2.66
101. FSDPSQSDPPTKDFWLNMAALTEA  2.66
102. FSDVSQSDPETKDFWLNMAALTEA  2.65
103. FLDPSQSDPETKDFWLNMAALTEA  2.65
104. FSDPSCSDPETKDFWLNMAALTEA  2.64
105. FSDPSQRDPETKDFWLNMAALTEA  2.64
106. FSDPSQSDNETKDFWLNMAALTEA  2.63
107. FSDPSQSLPETKDFWLNMAALTEA  2.63
108. FSDPSQSDPETKDFWLNMAKLTEA  2.63
109. FSDPSQSDPETKDFWLNMAALTGA  2.61
110. FSDPSQSDSETKDFWLNMAALTEA  2.6
111. FSDPCQSDPETKDFWLNMAALTEA  2.6
112. FSDPSQSDPETFDFWLNMAALTEA  2.6
113. FSDPSHSDPETKDFWLNMAALTEA  2.59
114. FSDPSQSDPETKDFWLNMAALTNA  2.58
115. FSDPSQSDPETKDFWLNVAALTEA  2.56
116. FSDPSNSDPETKDFWLNMAALTEA  2.56
117. FSDPSQSDPETKDFWTNMAALTEA  2.56
118. FSDPSLSDPETKDFWLNMAALTEA  2.55
119. FSDPSQSDPETKDFWMNMAALTEA  2.55
120. FSDPSQSDPQTKDFWLNMAALTEA  2.54
121. FSDPSQSDPETKDFWLNMDALTEA  2.53
122. FSDPSKSDPETKDFWLNMAALTEA  2.52
123. FSDPSQSDPATKDFWLNMAALTEA  2.5
124. FSDPSQSDPETKDFWLSMAALTEA  2.49
125. FSDPSQSDPETKDFWLNMAALREA  2.46
126. FSDPSQSDPETKDFWLLMAALTEA  2.43
127. FSDPSQSDPETKDFWLCMAALTEA  2.41
128. FSDPSQSDPETKDFWFNMAALTEA  2.41
129. FSPPSQSDPETKDFWLNMAALTEA  2.4
130. FSDPSISDPETKDFWLNMAALTEA  2.4
131. FSDPSQSDPETKDFWLNMAAYTEA  2.38
132. FSSPSQSDPETKDFWLNMAALTEA  2.38
133. FSDPSQSDPETKDFWLNMAILTEA  2.38
134. FSDPSQSDPETKTFWLNMAALTEA  2.37
135. FSDPSQSDPETKDFWLNIAALTEA  2.37
136. FSDPSQSDPETKPFWLNMAALTEA  2.37
137. FSDPSQSDPETKDFWLNMAALSEA  2.34
138. FSDPSQSDPETKDFWLNMAALPEA  2.34
139. FSDPSQSDPLTKDFWLNMAALTEA  2.33
140. FSDPSQSDPETKDFWLNMAALTPA  2.33
141. FSDPSQSDPETKDFWINMAALTEA  2.32
142. FGDPSQSDPETKDFWLNMAALTEA  2.32
143. FSDPSQSKPETKDFWLNMAALTEA  2.32
144. FSDPSQSDPEMKDFWLNMAALTEA  2.31
145. FSDPSQSDPETKDFWLNMALLTEA  2.31
146. FSDPSQSDPETKDFWLNMSALTEA  2.29
147. FSDPFQSDPETKDFWLNMAALTEA  2.27
148. FSDPSGSDPETKDFWLNMAALTEA  2.25
149. FSDPSQSDPETKDFWLNMVALTEA  2.25
150. FSDPSQSQPETKDFWLNMAALTEA  2.24
151. FSDPSQSDPETKDFWLNMAALTVA  2.24
152. FSDPSQSDPETKDFWLNMCALTEA  2.23
153. FSDPSQSHPETKDFWLNMAALTEA  2.21
154. FSDPSQSDPETKDFWRNMAALTEA  2.21
155. FSDPSQSDPETKDFWLNMAVLTEA  2.19
156. FSDPSQSDPETKDFWLNMFALTEA  2.18
157. FSDHSQSDPETKDFWLNMAALTEA  2.16
158. FSDFSQSDPETKDFWLNMAALTEA  2.16
159. FSDPSQSDPETKDFWLNMAAFTEA  2.1
160. FSFPSQSDPETKDFWLNMAALTEA  2.1
161. FSDPSQSDPETKDFWCNMAALTEA  2.1
162. FSDPSQSDPEFKDFWLNMAALTEA  2.09
163. FSDPSQSDPETKQFWLNMAALTEA  2.08
164. FSDPSQSDPETKDFWLNMAALTMA  2.08
165. FSDPSQSDPGTKDFWLNMAALTEA  2.03
166. FSDPSQSDPETKHFWLNMAALTEA  2.02
167. FSDPSQSDPETKDFWLNMGALTEA  2.01
168. FSDPSQSDPETKRFWLNMAALTEA  1.97
169. FSMPSQSDPETKDFWLNMAALTEA  1.96
170. FSDPSQSDPETKDFWLNMHALTEA  1.96
171. FSDPSQSNPETKDFWLNMAALTEA  1.95
172. FSDPSQSDPMTKDFWLNMAALTEA  1.94
173. FSDPSQSDPETKDFWLNMAALTIA  1.9
174. FSDPSQSDPETKFFWLNMAALTEA  1.88
175. FSDYSQSDPETKDFWLNMAALTEA  1.85
176. FSDPSQSDPETKDFWLNMAALTEV  1.82
177. FSDPSQSDPETKLFWLNMAALTEA  1.82
178. FSDPSQSDPETKDFWLFMAALTEA  1.82
179. FSDPSQSDPETKDFWLNMTALTEA  1.79
180. FSDPSQSDPETKCFWLNMAALTEA  1.77
181. FSDPSQSDPETKIFWLNMAALTEA  1.75
182. FSLPSQSDPETKDFWLNMAALTEA  1.74
183. FSDPSQSDPETKDFWLNMAAWTEA  1.73
184. FSHPSQSDPETKDFWLNMAALTEA  1.69
185. FSDPSQSDPETKWFWLNMAALTEA  1.65
186. FNDPSQSDPETKDFWLNMAALTEA  1.53
187. FSVPSQSDPETKDFWLNMAALTEA  1.45
188. FSAPSQSDPETKDFWLNMAALTEA  1.45
